Test results: US20220177587A1, “METHODS AND USES OF VARIANT CD80 FUSION PROTEINS AND RELATED CONSTRUCTS” (Alpine Immune Sciences, Inc., priority 2018, published 2022)

Legend:
human CTLA-4 (human) = human CTLA-4 (human) (UniProt P16410); assay: flow cytometry, CHO cells stably expressing CTLA4
CD28 (human) = CD28 (human) (UniProt P10747); assay: flow cytometry, Jurkat cells (CD28)
PD-L1 (human) = PD-L1 (human) (UniProt Q9NZQ7); assay: flow cytometry, CHO cells stably expressing PD-L1

wild-type CD80 IgV-Fc (inert), as in Example 12 (Fc fusion), sequence (chain): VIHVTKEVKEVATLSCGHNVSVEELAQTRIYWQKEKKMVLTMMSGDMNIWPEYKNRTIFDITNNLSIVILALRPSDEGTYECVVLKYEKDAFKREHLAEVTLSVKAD
wild-type CD80 IgV (SEQ ID NO: 150)-Fc (inert) with GSG4S linker (Fc fusion), sequence (chain): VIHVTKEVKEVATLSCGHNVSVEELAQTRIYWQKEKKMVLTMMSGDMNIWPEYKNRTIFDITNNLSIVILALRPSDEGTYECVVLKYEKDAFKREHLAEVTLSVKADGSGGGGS

Substance	MFI at 33.3 nM (human CTLA-4 (human))	MFI at 33.3 nM (CD28 (human))	MFI at 33.3 nM (PD-L1 (human))	further results
CD80 IgV-Fc deltaE10-A98 (Fc fusion)	125 MFI	15 MFI	45 MFI	–
CD80 IgV-Fc E35D/M47I/T62S/L85Q/E88D (Fc fusion)	8910 MFI	–	8420 MFI	–
CD80 (A91G/I118V/T120S/T130A) ECD-Fc (Fc fusion)	–	–	–	EC50 (human CTLA-4 (human)): 4.3 nM; MFI at 66.7 nM (human CTLA-4 (human)): 24800; MFI at 66.7 nM (CD28 (human)): 720; MFI at 66.7 nM (PD-L1 (human)): 107
variant CD80 IgV-Fc (inert) H18R/A26P/E35D/D46N/M47V/V68M/A71G/D90P (Fc fusion)	17300 MFI	–	29300 MFI	–
CD80 (E35D/D46E/M47V/V68M/D90G/K93E) ECD-Fc (Fc fusion)	–	–	–	EC50 (human CTLA-4 (human)): 10.5 nM; MFI at 66.7 nM (human CTLA-4 (human)): 24600; MFI at 66.7 nM (PD-L1 (human)): 287
variant CD80 IgV-Fc (inert) H18F/A26H/E35D/M47L/V68M/A71G/D90G (Fc fusion)	16400 MFI	8390 MFI	20700 MFI	–
variant CD80 IgV-Fc (inert) H18V/A26P/E35D/M47V/V68L/A71G (Fc fusion)	13700 MFI	–	55400 MFI	–
variant CD80 IgV-Fc (inert) H18Y/A26N/E35D/M47F/V68M/A71G/D90G (Fc fusion)	–	82.2 MFI	26500 MFI	–
WT CD80 ECD-Fc (R&D Systems) (Fc fusion)	–	–	–	EC50 (CD28 (human)): 164 nM; MFI at 11.1 nM (CD28 (human)): 139 MFI; EC50 (PD-L1 (human)): 31.2 nM; MFI at 11.1 nM (PD-L1 (human)): 86 MFI
CD80 (S21P/L70Q/D90G/I118V/T120S/T130A) ECD-Fc (Fc fusion)	–	–	–	EC50 (human CTLA-4 (human)): 8.8 nM; MFI at 66.7 nM (CD28 (human)): 282; MFI at 66.7 nM (PD-L1 (human)): 103
wild-type CD80 IgV-Fc (inert), as in Example 12 (Fc fusion)	1380 MFI	102 MFI	165 MFI	–
variant CD80 IgV-Fc (inert) H18V/A26N/E35D/M47V/V68M/A71G (Fc fusion)	22400 MFI	–	68200 MFI	–
Fc control (Example 24)	–	–	–	Fold change to WT CD80 (human CTLA-4 (human)): 0 fold; MFI at 11.1 nM (human CTLA-4 (human)): 106 MFI; Fold change to WT CD80 (CD28 (human)): 0.2 fold; MFI at 11.1 nM (CD28 (human)): 26 MFI; Fold change to WT CD80 (PD-L1 (human)): 1.8 fold; MFI at 11.1 nM (PD-L1 (human)): 158 MFI
variant CD80 IgV-Fc (inert) H18V/A26G/E35D/M47V/V68M/A71G/D90G (Fc fusion)	25400 MFI	8190 MFI	66200 MFI	–
CD80 (E88D/K89R/D90K/A91G/F92Y/K93R) ECD-Fc (Fc fusion)	–	–	–	EC50 (human CTLA-4 (human)): 3.6 nM; MFI at 66.7 nM (human CTLA-4 (human)): 26400; MFI at 66.7 nM (CD28 (human)): 4050; MFI at 66.7 nM (PD-L1 (human)): 108
wild-type CD80 IgV (SEQ ID NO: 150)-Fc (inert) with GSG4S linker (Fc fusion)	–	–	47 MFI	–

Continued, in another order:

MFI at 33.3 nM (human CTLA-4 (human))	MFI at 33.3 nM (CD28 (human))	MFI at 33.3 nM (PD-L1 (human))	Substance	further results
20300 MFI	6350 MFI	64800 MFI	variant CD80 IgV-Fc (inert) H18L/E35D/M47V/V68M/A71G/D90G (Fc fusion)	–
–	57.8 MFI	161 MFI	wild-type CD80 ECD-Fc (inert), as in Example 12 (Fc fusion)	–
–	267 MFI	22600 MFI	CD80 E35D/D46V/M47L/V68M/L85Q/E88D IgV-Fc, GS(G4S)3 linker (Fc fusion)	–
23200 MFI	9620 MFI	73200 MFI	variant CD80 IgV-Fc (inert) H18V/A26R/E35D/M47L/V68M/A71G/D90G (Fc fusion)	–
–	1900 MFI	14500 MFI	CD80 IgV-Fc H18Y/E35D/M47I/V68M/A71G/R94L (Fc fusion)	–
308 MFI	–	12200 MFI	CD80 IgV-Fc Q33R/M47V/T62N/A71G (Fc fusion)	–
–	2110 MFI	24200 MFI	CD80 E35D/M47V/N48K/V68M/K89N IgV-Fc, GS(G4S)3 linker (Fc fusion)	–
19800 MFI	8190 MFI	–	variant CD80 IgV-Fc (inert) A26P/E35D/M47I/V68M/A71G/D90G (Fc fusion)	–
